What all share (details): both partners purified
The target in assay [1] is T1, terbium-labeled core RNA polymerase (E. coli, UniProt P0A7Z4 1-329; P0A8V2 1-1342; P0A8T7 1-1407; P0A800 1-91, CS124-DTPA-Phe-NCS-Tb-chelate on randomly labeled lysine residues of core RNAP, 1:1 ratio of Tb-chelate to molecule of core; which subunit is not told | CS124-DTPA-Phe-NCS-Tb-chelate on randomly …).
T1 construct: E. coli RNA polymerase α subunit; E. coli RNA polymerase β subunit; E. coli RNA polymerase β' subunit; E. coli RNA polymerase ω subunit; also called Tb-core; Tb-core RNAP; copies: 2 + 1 + 1 + 1
Briefly: FRET or BRET; LRET saturation binding, homogeneous; fluorescein-sigma serially diluted, 10 nM Tb-core; TG (50 mM Tris-HCl pH 7.9, 5% glycerol) + 100 mM KGlu; 1 h at 22°C; [core]0 set at 5 nM in the fit.

For assay [2], the target named is T1, terbium-labeled core RNA polymerase. Briefly: FRET or BRET; LRET saturation binding, homogeneous; fluorescein-sigma serially diluted, 10 nM Tb-core; TG (50 mM Tris-HCl pH 7.9, 5% glycerol) + 500 mM NaCl; 1 h at 22°C; [core]0 set at 5 nM in the fit.
Assay [3] has the same target. Briefly: FRET or BRET; LRET saturation binding, homogeneous; fluorescein-sigma serially diluted, 10 nM Tb-core; TG (50 mM Tris-HCl pH 7.9, 5% glycerol) + 500 mM KGlu; 1 h at 22°C; [core]0 set at 5 nM in the fit.
Assay [4] has the same target. As to the kind of experiment: FRET or BRET; LRET saturation binding, homogeneous; fluorescein-sigma serially diluted, 10 nM Tb-core; TG (50 mM Tris-HCl pH 7.9, 5% glycerol) + 250 mM NaCl; 1 h at 22°C; [core]0 set at 5 nM in the fit.
The target is the same in assay [5]. As to the kind of experiment: FRET or BRET; LRET saturation binding, homogeneous; fluorescein-sigma serially diluted, 10 nM Tb-core; TG (50 mM Tris-HCl pH 7.9, 5% glycerol) + 250 mM KGlu; 1 h at 22°C; [core]0 set at 5 nM in the fit.
Assay [6] has the same target. Briefly: FRET or BRET; LRET saturation binding, homogeneous; fluorescein-sigma serially diluted, 10 nM Tb-core; TG (50 mM Tris-HCl pH 7.9, 5% glycerol) + 100 mM NaCl; 1 h at 22°C; [core]0 set at 5 nM in the fit.

T1 sequence (P0A7Z4 whole entry, chain 1 of 4): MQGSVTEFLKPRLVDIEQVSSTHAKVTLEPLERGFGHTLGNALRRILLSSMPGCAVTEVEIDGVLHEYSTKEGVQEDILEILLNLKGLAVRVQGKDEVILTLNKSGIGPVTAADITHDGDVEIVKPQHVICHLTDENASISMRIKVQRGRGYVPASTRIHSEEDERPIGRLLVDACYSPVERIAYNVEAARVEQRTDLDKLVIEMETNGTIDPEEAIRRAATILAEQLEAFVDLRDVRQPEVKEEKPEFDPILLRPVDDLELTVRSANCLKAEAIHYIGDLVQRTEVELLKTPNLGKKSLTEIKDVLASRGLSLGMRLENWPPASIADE
T1 sequence (P0A8V2 whole entry, chain 2 of 4): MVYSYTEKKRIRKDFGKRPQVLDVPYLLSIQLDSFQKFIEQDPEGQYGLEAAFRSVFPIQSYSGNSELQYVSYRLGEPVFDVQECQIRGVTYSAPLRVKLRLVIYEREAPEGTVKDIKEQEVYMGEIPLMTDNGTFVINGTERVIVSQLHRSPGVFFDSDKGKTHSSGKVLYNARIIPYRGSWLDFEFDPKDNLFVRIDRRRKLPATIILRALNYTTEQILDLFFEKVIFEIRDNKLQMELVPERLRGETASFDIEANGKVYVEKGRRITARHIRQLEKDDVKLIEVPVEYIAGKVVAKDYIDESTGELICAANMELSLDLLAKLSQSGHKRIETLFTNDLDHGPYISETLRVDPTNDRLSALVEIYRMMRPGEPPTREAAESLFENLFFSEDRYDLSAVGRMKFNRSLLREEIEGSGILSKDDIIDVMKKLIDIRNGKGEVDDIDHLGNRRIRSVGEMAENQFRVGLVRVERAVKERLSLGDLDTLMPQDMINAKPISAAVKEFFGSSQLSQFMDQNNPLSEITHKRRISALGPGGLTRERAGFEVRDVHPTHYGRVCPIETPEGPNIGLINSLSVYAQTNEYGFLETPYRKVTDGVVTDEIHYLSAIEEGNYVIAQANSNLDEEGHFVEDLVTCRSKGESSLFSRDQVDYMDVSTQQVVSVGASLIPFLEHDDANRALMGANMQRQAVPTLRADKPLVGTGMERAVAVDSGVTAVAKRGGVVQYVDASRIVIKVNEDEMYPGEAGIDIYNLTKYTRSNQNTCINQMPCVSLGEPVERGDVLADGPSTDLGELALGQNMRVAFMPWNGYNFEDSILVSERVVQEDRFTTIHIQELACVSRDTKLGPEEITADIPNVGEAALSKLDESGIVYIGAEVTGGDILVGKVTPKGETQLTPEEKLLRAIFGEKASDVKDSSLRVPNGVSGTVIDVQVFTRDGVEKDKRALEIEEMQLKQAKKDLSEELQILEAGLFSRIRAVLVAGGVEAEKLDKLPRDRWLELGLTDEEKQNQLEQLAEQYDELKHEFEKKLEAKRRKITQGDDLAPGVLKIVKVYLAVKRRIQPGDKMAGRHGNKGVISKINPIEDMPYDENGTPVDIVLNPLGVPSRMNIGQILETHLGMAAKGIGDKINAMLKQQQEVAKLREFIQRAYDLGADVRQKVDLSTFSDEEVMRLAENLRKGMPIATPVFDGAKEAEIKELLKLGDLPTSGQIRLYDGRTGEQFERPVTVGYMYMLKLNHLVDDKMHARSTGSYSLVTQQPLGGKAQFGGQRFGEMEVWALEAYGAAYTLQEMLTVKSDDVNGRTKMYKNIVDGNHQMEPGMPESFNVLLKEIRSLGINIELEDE
T1 sequence (P0A8T7 whole entry, chain 3 of 4): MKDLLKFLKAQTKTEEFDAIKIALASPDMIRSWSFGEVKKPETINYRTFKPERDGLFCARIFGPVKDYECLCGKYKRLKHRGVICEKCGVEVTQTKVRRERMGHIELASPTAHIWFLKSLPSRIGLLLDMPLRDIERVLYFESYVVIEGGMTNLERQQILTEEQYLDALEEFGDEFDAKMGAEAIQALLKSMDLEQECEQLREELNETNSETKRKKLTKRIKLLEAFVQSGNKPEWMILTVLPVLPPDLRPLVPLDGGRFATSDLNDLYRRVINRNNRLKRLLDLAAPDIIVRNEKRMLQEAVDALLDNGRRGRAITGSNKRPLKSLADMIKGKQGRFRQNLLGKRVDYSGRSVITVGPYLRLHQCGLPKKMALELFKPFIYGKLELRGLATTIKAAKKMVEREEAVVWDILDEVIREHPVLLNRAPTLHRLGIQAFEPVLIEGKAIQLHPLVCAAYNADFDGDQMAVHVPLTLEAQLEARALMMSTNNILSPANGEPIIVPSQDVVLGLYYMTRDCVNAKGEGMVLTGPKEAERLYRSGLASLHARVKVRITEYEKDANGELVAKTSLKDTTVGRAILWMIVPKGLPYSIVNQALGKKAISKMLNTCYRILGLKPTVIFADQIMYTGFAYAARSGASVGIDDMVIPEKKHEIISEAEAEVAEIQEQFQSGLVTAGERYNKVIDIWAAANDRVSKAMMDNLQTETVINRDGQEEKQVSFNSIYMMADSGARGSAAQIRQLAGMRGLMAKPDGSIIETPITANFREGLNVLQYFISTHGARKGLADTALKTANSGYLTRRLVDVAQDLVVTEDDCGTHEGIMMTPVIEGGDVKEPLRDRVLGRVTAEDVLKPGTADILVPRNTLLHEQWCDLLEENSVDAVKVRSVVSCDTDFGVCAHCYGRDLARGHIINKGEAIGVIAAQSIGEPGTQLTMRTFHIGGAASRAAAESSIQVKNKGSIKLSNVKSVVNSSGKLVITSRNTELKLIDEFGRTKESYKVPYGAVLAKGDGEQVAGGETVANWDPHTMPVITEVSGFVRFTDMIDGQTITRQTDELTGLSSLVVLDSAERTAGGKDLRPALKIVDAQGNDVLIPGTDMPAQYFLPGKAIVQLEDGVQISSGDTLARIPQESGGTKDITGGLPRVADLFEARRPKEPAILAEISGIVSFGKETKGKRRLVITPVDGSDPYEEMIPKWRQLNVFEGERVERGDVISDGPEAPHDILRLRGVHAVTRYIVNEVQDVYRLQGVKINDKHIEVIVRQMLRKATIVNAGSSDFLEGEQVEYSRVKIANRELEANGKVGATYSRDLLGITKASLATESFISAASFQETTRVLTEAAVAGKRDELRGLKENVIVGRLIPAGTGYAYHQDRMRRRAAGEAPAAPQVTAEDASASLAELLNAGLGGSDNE
T1 sequence (P0A800 whole entry, chain 4 of 4): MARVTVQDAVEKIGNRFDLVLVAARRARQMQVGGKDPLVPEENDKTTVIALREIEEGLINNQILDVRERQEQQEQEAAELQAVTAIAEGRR

B1: fluorescein-σ32 (natural protein, E. coli, UniProt P0AGB3 1-284, looked up)
chain: MTDKMQSLALAPVGNLDSYIRAANAWPMLSADEERALAEKLHYHGDLEAAKTLILSHLRFVVHIARNYAGYGLPQADLIQEGNIGLMKAVRRFNPEVGVRLVSFAVHWIKAEIHEYVLRNWRIVKVATTKAQRKLFFNLRKTKQRLGWFNQDEVEMVARELGVTSKDVREMESRMAAQDMTFDLSSDDDSDSQPMAPVLYLQDKSSNFADGIEDDNWEEQAANRLTDAMQGLDERSQDIIRARWLDEDNKSTLQELADRYGVSAERVRQLEKNAMKKLRAAIEA
modifications: fluorescein on randomly labeled lysine residues, 2:1 ratio of fluorescein to molecule of protein
notes: E. coli heat shock sigma factor σ32 (RpoH); also called F-σ32; RpoH
For the molecule B1, the Kd in assay [1] was 0.3 nM; in assay [2], 2.4 nM; in assay [3], 2 nM; in assay [4], 0.6 nM; in assay [5], 1.3 nM; in assay [6], 0.8 nM.

(Values after article PMC2715106 (PLoS ONE, 2009).)
